Changes are numbered by the printed parent chain.
B1: chimeric antibody 37C (antibody, V domains shown)
VH: QVQLKQSGAELVRPGASVKLSCKASGYTFTDYYINWVKQRPGQGLEWIARIYPGSGNTYYNEKFKGKATLTAEKSSSTAYMQLSSLTSEDSAVYFCARGVYYFDYWGQGTTLTVSA
VL: DIVMTQSQKFMSTSVGDRVSVTCKASQNVRTNVAWYQQKPGQSPKALIYSASYRYSGVPDRFTGSGSGTDFTLTISNVQSEDLADYFCQQYNSYPRTFGGGTKLEIK
notes: also called chimera of antibody 37M; chimera
B2: Hum8 (antibody, V domains shown)
VH: QVQLVQSGAEVKKPGASVKLSCKASGYTFTDYYINWVRQAPGKGLEWIARIYPGSGNTYYNEKFKGRATLTADKSTSTAYMQLSSLRSEDTAVYFCARGVYYFDYWGQGTTVTVSS
VL: DIVMTQSPSSLSASVGDRVTITCKASQNVRTNVAWYQQKPGKAPKALIYSASYRYSGVPDRFTGSGSGTDFTLTISSLQPEDFADYFCQQYNSYPRTFGGGTKVEIK
B3: Hum4 (antibody, V domains shown)
VH: B2 VH with L20V, L70I, Q82E
VL: B2 VL with S10F, P80S
B4: Hum17 (antibody, V domains shown)
VH: B2 VH with R38K, D73E
VL: B2 VL with A46S, T63S, D85T, F87Y
B5: Hum10 (antibody, V domains shown)
VH: B2 VH with L20V, A68V, L70I, Q82E
VL: B2 VL

Biological target: T1, full-length, wild-type human KIT expressed on CHO cells (human, UniProt P10721 26-976)
T1 sequence (P10721 other isoform, or with tags, fused parts or gaps limits assumed): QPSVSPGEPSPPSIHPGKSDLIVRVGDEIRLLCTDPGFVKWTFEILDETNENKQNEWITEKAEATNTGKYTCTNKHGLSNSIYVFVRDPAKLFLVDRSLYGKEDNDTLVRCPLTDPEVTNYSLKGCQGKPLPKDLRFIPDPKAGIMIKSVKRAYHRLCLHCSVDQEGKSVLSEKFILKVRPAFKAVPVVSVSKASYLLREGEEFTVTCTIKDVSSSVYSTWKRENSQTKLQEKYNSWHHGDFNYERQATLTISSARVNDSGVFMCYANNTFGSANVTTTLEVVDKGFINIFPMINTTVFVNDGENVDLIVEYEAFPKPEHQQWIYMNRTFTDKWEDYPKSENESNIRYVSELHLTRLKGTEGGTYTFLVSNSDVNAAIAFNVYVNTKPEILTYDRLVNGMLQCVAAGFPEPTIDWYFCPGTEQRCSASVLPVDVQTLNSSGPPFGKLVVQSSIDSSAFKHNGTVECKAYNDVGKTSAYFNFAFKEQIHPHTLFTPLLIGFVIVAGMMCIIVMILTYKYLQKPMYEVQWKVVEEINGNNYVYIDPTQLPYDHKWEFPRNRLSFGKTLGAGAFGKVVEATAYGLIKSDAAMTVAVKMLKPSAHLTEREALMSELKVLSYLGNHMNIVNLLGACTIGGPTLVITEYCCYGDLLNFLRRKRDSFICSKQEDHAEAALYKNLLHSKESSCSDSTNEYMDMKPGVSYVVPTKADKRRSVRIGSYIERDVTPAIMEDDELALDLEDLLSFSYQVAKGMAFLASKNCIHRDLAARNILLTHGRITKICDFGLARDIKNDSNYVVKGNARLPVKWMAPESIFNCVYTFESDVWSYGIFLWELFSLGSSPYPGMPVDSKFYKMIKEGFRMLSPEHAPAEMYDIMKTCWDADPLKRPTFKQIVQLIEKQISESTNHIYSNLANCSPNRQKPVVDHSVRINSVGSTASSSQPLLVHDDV
Experiment: cell-based or functional assay

**Q.** B1 was tested. Which “50% inhibition concentration (IC50), SCF-induced KIT tyrosine phosphorylation, cell-based phospho-KIT ELISA” value (“50% inhibition concentration (IC50)” below) did it give?
**A.** ~0.344 nM

**Q.** B2 was tested. Which “50% inhibition concentration (IC50)” value did it give?
**A.** ~0.542 nM

**Q.** For B3, which “50% inhibition concentration (IC50)” value is on record?
**A.** ~0.47 nM

**Q.** For B4, which “50% inhibition concentration (IC50)” value is on record?
**A.** ~0.51 nM

**Q.** B5 was tested. Which “50% inhibition concentration (IC50)” value did it give?
**A.** ~0.51 nM

Biological target: T1, full-length, wild-type human KIT …
Experiment: cell-based or functional assay
Remark: another data set of the same source

**Q.** Which “Relative blocking activity, assay #3 (96-well): IC50 of inhibition of SCF-induced KIT phosphorylation, normalized to chimeric 37M antibody” value does the source give for B2 here?
**A.** 1.01 relative to chimeric 37M antibody

**Q.** What about the “Relative blocking activity, assay #4 (96-well): IC50 of inhibition of SCF-induced KIT phosphorylation, normalized to chimeric 37M antibody” value of the same binder?
**A.** 1.12 relative to chimeric 37M antibody

**Q.** How did the “Relative blocking activity, assay #2 (24-well): IC50 of inhibition of SCF-induced KIT phosphorylation, normalized to chimeric 37M antibody” value turn out when B3 was run?
**A.** 1.2 relative to chimeric 37M antibody

**Q.** And the “Relative blocking activity, assay #4 (96-well): IC50 of inhibition of SCF-induced KIT phosphorylation, normalized to chimeric 37M antibody” value?
**A.** 0.86 relative to chimeric 37M antibody

**Q.** Which “Relative blocking activity, assay #2 (24-well): IC50 of inhibition of SCF-induced KIT phosphorylation, normalized to chimeric 37M antibody” value does the source give for B4 here?
**A.** 1.39 relative to chimeric 37M antibody

**Q.** And the “Relative blocking activity, assay #4 (96-well): IC50 of inhibition of SCF-induced KIT phosphorylation, normalized to chimeric 37M antibody” value?
**A.** 1.07 relative to chimeric 37M antibody

**Q.** With B5 as the binder, how does the “Relative blocking activity, assay #2 (24-well): IC50 of inhibition of SCF-induced KIT phosphorylation, normalized to chimeric 37M antibody” value read?
**A.** 0.82 relative to chimeric 37M antibody

**Q.** And the “Relative blocking activity, assay #4 (96-well): IC50 of inhibition of SCF-induced KIT phosphorylation, normalized to chimeric 37M antibody” value?
**A.** 0.86 relative to chimeric 37M antibody

Biological target: T2, murine KIT (murine, UniProt P05532 25-527, limits assumed)
T2 sequence (looked up): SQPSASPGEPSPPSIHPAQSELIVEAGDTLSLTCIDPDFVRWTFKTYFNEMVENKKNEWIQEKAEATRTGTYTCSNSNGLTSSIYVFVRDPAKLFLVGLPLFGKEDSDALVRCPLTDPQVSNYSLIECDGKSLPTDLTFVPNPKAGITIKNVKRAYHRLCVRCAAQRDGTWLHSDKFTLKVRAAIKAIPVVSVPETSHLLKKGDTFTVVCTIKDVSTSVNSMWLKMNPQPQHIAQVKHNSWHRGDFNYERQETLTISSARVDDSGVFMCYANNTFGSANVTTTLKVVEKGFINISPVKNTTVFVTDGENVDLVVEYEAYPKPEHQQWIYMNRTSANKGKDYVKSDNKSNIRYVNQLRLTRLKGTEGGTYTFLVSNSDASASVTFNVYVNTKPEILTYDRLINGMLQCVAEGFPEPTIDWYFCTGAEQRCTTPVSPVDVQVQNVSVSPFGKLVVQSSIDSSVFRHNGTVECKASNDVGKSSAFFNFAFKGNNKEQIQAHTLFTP
Experiment: additional binding assays (format not described)

**Q.** Does B2 bind?
**A.** no binding

**Q.** Does B3 bind?
**A.** no binding

**Q.** Does B4 bind?
**A.** no binding

**Q.** Does B5 bind?
**A.** no binding

Biological target: T1, full-length, wild-type human KIT …
Experiment: flow cytometry on CHO cells expressing full-length wild-type human KIT (FIG. 6)
Protocol: Briefly, parental CHO cells and CHO/KIT-WT cells were washed and incubated with 0.01 nM, 0.1 nM, 1 nM or 10 nM of a chimeric (human-mouse) 37M antibody, antibody Hum17, Hum8, Hum4, or Hum10, a negative control isotype IgG antibody, or a commercial anti-KIT antibody as a positive control. The samples were processed for flow cytometry analysis. More specifically, cells were removed from the culture flasks using EDTA, and washed with PBS. Then, the cells were resuspended in media and counted. Each sample containing approximately 200,000 to 250,000 cells was spun, the media was removed, and the cells were resuspended in FC buffer (1% BSA, 0.01% sodium azide in 1×PBS) for the blocking step. The cells were incubated in FC buffer for 1 hour on ice. Then, primary antibody (e.g., a chimeric (human-mouse) 37M antibody, Hum17, Hum8, Hum4, Hum10, positive control anti-KIT antibody, or negative control antibody) was added to the cells in FC buffer as described above. The samples were mixed and incubated on ice for 1 hour, followed by washing the cells with 0.5-1 mL FC buffer. The FC buffer was removed by spinning the cells at 1200 rpm for 3 minutes at 4° C., decanting the liquid. The cell pellets were resuspended in 200 μL FC buffer, and secondary antibody (DyLight 488 AffiniPure Goat Anti-Mouse IgG Jackson Laboratories) was added to the cells at a 1:1000 to 1:2000 dilution. The samples were mixed and incubated on ice for 1 hour, and then washed as described above. The samples were run on a fluorescence activated cell sorter (FACS) machine (Accuri FlowCytometer C6). Samples were analyzed by following channel FLA-1 for DyLight-conjugated samples.

**Q.** For B1, which EC50 is on record?
**A.** ~0.047 nM

**Q.** For B2, which EC50 is on record?
**A.** ~0.083 nM

**Q.** How did the EC50 turn out when B3 was run?
**A.** ~0.106 nM

**Q.** Which EC50 does the source give for B4 here?
**A.** ~0.139 nM

**Q.** B5 was tested. Which EC50 did it give?
**A.** ~0.132 nM

Biological target: T3, recombinant KIT D4/D5 (human, UniProt P10721 26-519)
T3 construct: also called recombinant c-Kit Ig-like domains D4/D5; recombinant polypeptide of the D4/D5 region of human KIT
T3 sequence (P10721 other isoform, or with tags, fused parts or gaps limits assumed): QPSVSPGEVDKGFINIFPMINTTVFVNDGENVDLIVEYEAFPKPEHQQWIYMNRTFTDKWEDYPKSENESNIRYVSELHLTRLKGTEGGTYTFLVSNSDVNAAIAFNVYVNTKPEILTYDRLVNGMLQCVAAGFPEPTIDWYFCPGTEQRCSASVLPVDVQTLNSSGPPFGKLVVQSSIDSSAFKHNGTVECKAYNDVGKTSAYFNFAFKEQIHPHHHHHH
Experiment: solid phase ELISA, plate-adsorbed recombinant D4/D5 region of human KIT (FIG. 5)
Protocol: Recombinant antigen corresponding to the D4/D5 region of the KIT extracellular domain (see FIG. 2) was absorbed onto 96-well microtiter plates. In particular, recombinant antigen (5 μg) were diluted into 10 mL of borate buffer, and 100 μL of the antigen solution were added to each well of a 96 well plate and were incubated at 4° C. overnight.
ELISA: Following one rinse with TBS-T, blocking buffer (200 μL) was added to each well of the plate with the adsorbed antigen and was incubate at room temperature for one hour. Then, the blocking buffer was removed, and the serially diluted solutions of test antibodies and controls were added to the plate in a volume of 50 μL and incubated at room temperature for one hour. The antibody solutions were removed, and the plate was washed three times with 100 μL of wash buffer on a plate washer. After the last wash, the plate was blotted dry. Secondary antibody solution was diluted 1:8000 and was added to each well in a volume of 100 μL and allowed to incubate for one hour at room temperature. The diluted secondary antibody solution was removed, and the plate was washed three times with 100 μL of wash buffer on a plate washer. Then, freshly mixed TMB substrate solution was added to each well in a volume of 100 μL and was allowed to incubate at room temperature for 30 minutes. Subsequently, 100 μL of 2N H₂SO₄ were added to each well and immediately read on the plate reader. An irrelevant antibody served as the negative control, and an anti-KIT antibody against the D4 and/or D5 domain of the extracellular region of KIT served as the positive control. OD values for each sample were obtained at a wavelength of 450 nm.
Results were analyzed using Graph Pad Prism and Excel to obtain the concentration of antibodies at 50% binding to antigen.

**Q.** With B1 as the binder, how does the EC50 read?
**A.** ~0.012 nM

**Q.** How did the EC50 turn out when B2 was run?
**A.** ~0.011 nM

**Q.** Which EC50 does the source give for B3 here?
**A.** ~0.0075 nM

**Q.** How did the EC50 turn out when B4 was run?
**A.** ~0.0066 nM

**Q.** Which EC50 does the source give for B5 here?
**A.** ~0.023 nM

Biological target: T3, recombinant KIT D4/D5
Experiment: direct binding ELISA, plate-coated recombinant KIT D4/D5; assay #3 (purified)
Protocol: (§1) The binding affinity of the anti-KIT antibodies to the target antigen KIT Ig-like domains D4/D5 was assessed by direct binding ELISA. […] Bound antibody was detected with anti-human Ig-HRP followed by detection using TMB substrate.

**Q.** How did the Relative binding activity turn out when B2 was run?
**A.** 0.89 relative to chimeric antibody 37C (normalized EC50)

**Q.** How did the Relative binding activity turn out when B3 was run?
**A.** 1.07 relative to chimeric antibody 37C (normalized EC50)

**Q.** For B4, which Relative binding activity is on record?
**A.** 0.98 relative to chimeric antibody 37C (normalized EC50)

**Q.** With B5 as the binder, how does the Relative binding activity read?
**A.** 0.87 relative to chimeric antibody 37C (normalized EC50)

Biological target: T3, recombinant KIT D4/D5
Experiment: direct binding ELISA, plate-coated recombinant KIT D4/D5; assay #4 (purified)
Protocol: as §1

**Q.** Which Relative binding activity does the source give for B2 here?
**A.** 0.75 relative to chimeric antibody 37C (normalized EC50)

**Q.** Which Relative binding activity does the source give for B3 here?
**A.** 0.83 relative to chimeric antibody 37C (normalized EC50)

**Q.** With B4 as the binder, how does the Relative binding activity read?
**A.** 0.72 relative to chimeric antibody 37C (normalized EC50)

**Q.** B5 was tested. Which Relative binding activity did it give?
**A.** 0.72 relative to chimeric antibody 37C (normalized EC50)

Biological target: T3, recombinant KIT D4/D5
Experiment: direct binding ELISA, plate-coated recombinant KIT D4/D5; assay #1 (supernatant)
Protocol: as §1

**Q.** Which Relative binding activity does the source give for B2 here?
**A.** 1.02 relative to chimeric antibody 37C (normalized EC50)

**Q.** For B4, which Relative binding activity is on record?
**A.** 1.17 relative to chimeric antibody 37C (normalized EC50)

**Q.** With B5 as the binder, how does the Relative binding activity read?
**A.** 1.1 relative to chimeric antibody 37C (normalized EC50)

Biological target: T3, recombinant KIT D4/D5
Experiment: direct binding ELISA, plate-coated recombinant KIT D4/D5; assay #2 (supernatant)
Protocol: as §1

**Q.** Which Relative binding activity does the source give for B2 here?
**A.** 0.62 relative to chimeric antibody 37C (normalized EC50)

**Q.** With B3 as the binder, how does the Relative binding activity read?
**A.** 0.91 relative to chimeric antibody 37C (normalized EC50)

**Q.** With B4 as the binder, how does the Relative binding activity read?
**A.** 0.76 relative to chimeric antibody 37C (normalized EC50)

**Q.** With B5 as the binder, how does the Relative binding activity read?
**A.** 0.88 relative to chimeric antibody 37C (normalized EC50)

Biological target: T3, recombinant KIT D4/D5
Experiment: direct binding ELISA, plate-coated recombinant KIT D4/D5; assay #4 (purified), 1 replicate
Protocol: as §1

**Q.** Which EC50 does the source give for B1 here?
**A.** 0.568 nM

Biological target: T3, recombinant KIT D4/D5
Experiment: direct binding ELISA, plate-coated recombinant KIT D4/D5; assay #3 (purified), mean of 2 replicates
Protocol: as §1

**Q.** For B1, which EC50 is on record?
**A.** 0.462 nM

Biological target: T3, recombinant KIT D4/D5
Experiment: direct binding ELISA, plate-coated recombinant KIT D4/D5; assay #1 (supernatant), mean of 4 replicates
Protocol: as §1

**Q.** Which EC50 does the source give for B1 here?
**A.** 0.381 nM

Biological target: T3, recombinant KIT D4/D5
Experiment: direct binding ELISA, plate-coated recombinant KIT D4/D5; assay #2 (supernatant), mean of 5 replicates
Protocol: as §1

**Q.** Which EC50 does the source give for B1 here?
**A.** 0.412 nM

From patent US20190106510A1 (CELLDEX THERAPEUTICS, published 2019)
